Experimental data published in patent publication US20200283475A1.

How the values were obtained:
[1] = target: human polyclonal IgG (Gammanorm) (human); assay: SPR; ratio of remaining capacity to reference Zvar1
[2] = target: human polyclonal IgG (Gammanorm) (human); assay: SPR, ligand on chip; signal left after 96-100 CIP cycles 0.5 M NaOH
[3] = target: human polyclonal IgG (Gammanorm) (human); assay: SPR; ratio to reference Zvar2
[4] = target: human polyclonal IgG (Gammanorm) (human); assay: SPR, ligand on chip; CIP cycles 0.5 M NaOH
[5] = target: human polyclonal IgG (Gammanorm) (human); assay: SPR; ratio to reference Zvar4
[6] = target: human polyclonal IgG (Gammanorm) (human); assay: SPR, 1 M NaOH; ratio to reference Zvar4
[7] = target: human polyclonal IgG (Gammanorm) (human); assay: SPR, ligand on chip; CIP cycles 1 M NaOH
[8] = target: human polyclonal IgG (Gammanorm) (human); assay: column breakthrough, ligand […]; after 24 h 0.5 M NaOH
[9] = target: human polyclonal IgG (Gammanorm) (human); assay: column breakthrough, ligand 7.0 mg/ml; after 24 h 0.5 M NaOH
[10] = target: human polyclonal IgG (Gammanorm) (human); assay: column breakthrough, agarose beads, ligand […], 6 min residence
[11] = target: human polyclonal IgG (Gammanorm) (human); assay: column breakthrough, agarose beads, ligand 7.0 mg/ml, 6 min residence

Row | Substance | Capacity relative to reference [1] | Capacity after 96-100 cycles [2] [%] | Remaining capacity 100 cycles (%) [4] [%] | further results
1 | Zvar(Q9A,N11E,A29Q,Q40V,A42K,N43A,L44I)1 (designed binder) | 1.28 | 60 | – | –
2 | Zvar(Q9A,N11E,A29W,Q40V,A42K,N43A,L44I)1 (designed binder) | 1.3 | 60 | – | –
3 | Zvar(N11K,H18K,S33K,D37E,A42R,N43A,L44I,K50R,L51Y)1 (designed binder) | 1.46 | 67 | – | –
4 | Zvar(Q9A,N11E,A29D,Q40V,A42K,N43A,L44I)1 (designed binder) | 1.19 | 56 | – | –
5 | Zvar(Q9A,N11K,H18K,D37E,A42R,N43A,L44I)1 (designed binder) | 1.4 | 63 | – | –
6 | Zvar(Q9A,N11K,H18K,D37E,A42R,N43A,L44I,K50R)1 (designed binder) | 1.49 | 67 | – | –
7 | Zvar(Q9A,N11E,N28A,N43A)4 with an additional N-terminal cysteine (designed binder) | – | – | – | Remaining IgG capacity Qb10 after six 4 h cycles [8]: 46.2 mg/mL; Remaining IgG capacity after six 4 h cycles (%) [8]: 93%; Remaining IgG capacity Qb10 after six 4 h cycles [9]: 44.1 mg/mL; Remaining IgG capacity after six 4 h cycles (%) [9]: 90%; Initial IgG capacity Qb10 [10]: 50 mg/mL; Initial IgG capacity Qb10 [11]: 49.1 mg/mL
8 | Zvar(Q9A,N11E,N43A)4 (designed binder) | – | – | 81 | Capacity relative to ref. 100 cycles [5]: 1.21; Capacity relative to ref. 200 cycles [5]: 1.72; Capacity relative to ref. 300 cycles [5]: 2.56; Remaining capacity 200 cycles (%) [4]: 62%; Remaining capacity 300 cycles (%) [4]: 41%
9 | Zvar(N11E,Q32E,K50R)1 (designed binder) | 1.04 | 53 | – | –
10 | Zvar(Q9A,N11E,A29L,Q40V,A42K,N43A,L44I)1 (designed binder) | 1.33 | 61 | – | –
11 | Zvar(Q9A,N11E,A29N,Q40V,A42K,N43A,L44I)1 (designed binder) | 1.3 | 61 | – | –
12 | Zvar(Q9A,N11E,A29S,Q40V,A42K,N43A,L44I)1 (designed binder) | 1.38 | 66 | – | –
13 | Zvar(Q9A,N11E,A29T,Q40V,A42K,N43A,L44I)1 (designed binder) | 1.28 | 60 | – | –
14 | Zvar(Q9A,N11E,A29F,Q40V,A42K,N43A,L44I)1 (designed binder) | 1.35 | 62 | – | –
15 | Zvar(Q9A,N11E,Q40V,A42K,N43A,L44I,D53Y)1 (designed binder) | 1.28 | 59 | – | –
16 | Zvar(Q9A,N11E,Q40V,A42K,N43A,L44I,D53K)1 (designed binder) | 1.41 | 65 | – | –
17 | Zvar(Q9A,N11E,A29Y,Q40V,A42K,N43A,L44I)1 (designed binder) | 1.27 | 61 | – | –

Row | Substance | Capacity relative to reference [1] | Capacity after 96-100 cycles [2] [%] | Remaining capacity 100 cycles (%) [4] [%] | further results
18 | Zvar(Q9A,N11E,N28A,Q40V,A42K,N43A,L44I)4 (designed binder) | – | – | 84 | Capacity relative to ref. 100 cycles [5]: 1.24
19 | Zvar(Q9A,N11E,Q40V,A42K,N43A,L44I)2 with P57, K58, V1, D2 and A3 in linker deleted (designed binder) | – | – | 74 | Capacity relative to ref. 100 cycles [3]: 1.35
20 | Zvar(Q9A,N11E,Q40V,A42K,N43A,L44I)2 with D2, A3 and K4 in linker deleted (designed binder) | – | – | 70 | Capacity relative to ref. 100 cycles [3]: 1.27
21 | Zvar(Q9A,N11E,Q40V,A42K,N43A,L44I)2 with V1, D2, A3, K4, F5, D6, K7 and E8 in linker deleted (designed binder) | – | – | 62 | Capacity relative to ref. 100 cycles [3]: 1.13
22 | Zvar(Q9A,N11E,A29R,Q40V,A42K,N43A,L44I)1 (designed binder) | 1.26 | 58 | – | –
23 | Zvar(Q9A,N11E,N28A,Q40V,A42K,N43A,L44I)1 (designed binder) | 1.35 | 65 | – | –
24 | Zvar(Q9A,N11E,Q40V,A42K,N43A,L44I)2 with A56, P57 and K58 in linker deleted (designed binder) | – | – | 68 | Capacity relative to ref. 100 cycles [3]: 1.26
25 | Zvar(Q9A,N11E,A29H,Q40V,A42K,N43A,L44I)1 (designed binder) | 1.21 | 57 | – | –
26 | Zvar(Q9A,N11E,Q40V,A42K,N43del,L44I)1 (designed binder) | 1.2 | 55 | – | –
27 | Zvar(Q9A,N11E,Q40V,A42K,N43A,L44I)2 with V1, D2 and A3 in linker deleted (designed binder) | – | – | 75 | Capacity relative to ref. 100 cycles [3]: 1.39
28 | Zvar(Q9A,N11K,H18K,S33K,D37E,A42R,N43A,L44I,K50R,L51Y)1 (designed binder) | 1.28 | 59 | – | –
29 | Zvar(Q9A,N11E,Q40V,A42K,N43A,L44I,D53F)1 (designed binder) | 1.26 | 58 | – | –
30 | Zvar(Q9A,N11E,A29K,Q40V,A42K,N43A,L44I)1 (designed binder) | 1.28 | 59 | – | –
31 | Zvar(Q9A,N11E,N28A,N43A)4 (designed binder) | – | – | 80 | Capacity relative to ref. 100 cycles [5]: 1.19; Capacity relative to ref. 200 cycles [5]: 1.72; Capacity relative to ref. 300 cycles [5]: 2.62; Capacity relative to ref. 100 cycles [6]: 2.04; Remaining capacity 100 cycles (%) [7]: 55%; Remaining capacity 200 cycles (%) [4]: 62%; Remaining capacity 300 cycles (%) [4]: 42%
32 | Zvar(Q9A,N11E,A29E,Q40V,A42K,N43A,L44I)1 (designed binder) | 1.21 | 57 | – | –
33 | Zvar(Q9A,N11E,Q40V,A42del,N43A,L44I)1 (designed binder) | 1.24 | 57 | – | –
34 | Zvar(Q9A,N11E,D37E,Q40V,A42R,N43A,L44I)4 (designed binder) | – | – | 84 | Capacity relative to ref. 100 cycles [5]: 1.17

Second part, led by results:

Row | Capacity relative to reference [1] | Capacity after 96-100 cycles [2] [%] | Remaining capacity 100 cycles (%) [4] [%] | Substance | further results
35 | – | – | 72 | Zvar(Q9A,N11E,Q40V,A42K,N43A,L44I)2 with YEDG inserted in linker between K58 and V1 (designed binder) | Capacity relative to ref. 100 cycles [3]: 1.31
36 | – | – | 90 | Zvar(Q9A,N11E,Q40V,A42K,N43A,L44I)4 (designed binder) | Capacity relative to ref. 100 cycles [5]: 1.34; Capacity relative to ref. 200 cycles [5]: 2.06; Capacity relative to ref. 300 cycles [5]: 3.56; Capacity relative to ref. 100 cycles [6]: 2.07; Remaining capacity 100 cycles (%) [7]: 56%; Remaining capacity 200 cycles (%) [4]: 74%; Remaining capacity 300 cycles (%) [4]: 57%
37 | – | – | 81 | Zvar(Q9A,N11E,D37E,Q40V,A42K,N43A,L44I)4 (designed binder) | Capacity relative to ref. 100 cycles [5]: 1.13
38 | 1.32 | 62 | – | Zvar(Q9A,N11E,A29M,Q40V,A42K,N43A,L44I)1 (designed binder) | –
39 | 1.32 | 62 | – | Zvar(Q9A,N11E,A29V,Q40V,A42K,N43A,L44I)1 (designed binder) | –
40 | – | – | 84 | Zvar(Q9A,N11E,Q40V,A42K,N43E,L44I)4 (designed binder) | Capacity relative to ref. 100 cycles [5]: 1.25; Capacity relative to ref. 200 cycles [5]: 1.81; Capacity relative to ref. 300 cycles [5]: 3; Capacity relative to ref. 100 cycles [6]: 2; Remaining capacity 100 cycles (%) [7]: 54%; Remaining capacity 200 cycles (%) [4]: 65%; Remaining capacity 300 cycles (%) [4]: 48%
41 | – | – | 76 | Zvar(Q9A,N11E,Q40V,A42K,N43A,L44I)2 with K58, V1 and D2 in linker deleted (designed binder) | Capacity relative to ref. 100 cycles [3]: 1.38
42 | 1.3 | 60 | – | Zvar(Q9A,N11E,Q40V,A42K,N43A,L44I,D53R)1 (designed binder) | –
43 | 1.31 | 59 | – | Zvar(N11K,H18K,D37E,A42R,N43A,L44I)1 (designed binder) | –
44 | 1.3 | 60 | – | Zvar(Q9del,N11E,Q40V,A42K,N43A,L44I)1 (designed binder) | –
45 | 1.35 | 62 | – | Zvar(Q9A,N11E,Q40V,A42K,N43A,L44I,D53W)1 (designed binder) | –
46 | 1.28 | 59 | – | Zvar(Q9A,N11E,Q40del,A42K,N43A,L44I)1 (designed binder) | –
47 | – | – | 70 | Zvar(Q9A,N11E,Q40V,A42K,N43A,L44I)2 with K4, F5, D6, K7 and E8 in linker deleted (designed binder) | Capacity relative to ref. 100 cycles [3]: 1.3
48 | 1.23 | 58 | – | Zvar(Q9A,N11E,A29I,Q40V,A42K,N43A,L44I)1 (designed binder) | –
